Laboratory results taken from patent publication US20230151111A1 (AKESO BIOPHARMA, published 2023).
Each block holds one binder with its values, some of them ahead of it.

Assays:
[1] = molecular target: T1, PD-1 on 293T-PD1 cell surface (human, UniProt Q15116 25-288); test: flow cytometry, 293T-PD1 cells; antibody 0.05 nM
T1 construct: whole, on cells
Method: (§1) 500 μL of PBSA was added, and the mixture was centrifuged at 5600 rpm for 5 min to remove the supernatant. […] The system was mixed gently and uniformly, and then was incubated on ice for 1 h. Then 500 μL of PBSA was added, and the mixture was centrifuged at 5600 rpm for 5 min to remove the supernatant. […] 500 μL of PBSA was added, and the mixture was centrifuged at 5600 rpm for 5 min to remove the supernatant. At last, 200 μL of PBSA was added to resuspend cell precipitates, and the mixture was transferred to a flow tube for FACSCalibur detection.

[2] = molecular target: T1, PD-1 on 293T-PD1 cell surface; test: flow cytometry, 293T-PD1 cells; antibody 0.14 nM
Method: as §1

[3] = molecular target: T1, PD-1 on 293T-PD1 cell surface; test: flow cytometry, 293T-PD1 cells; antibody 0.41 nM
Method: as §1

[4] = molecular target: T1, PD-1 on 293T-PD1 cell surface; test: flow cytometry, 293T-PD1 cells; antibody 11.11 nM
Method: as §1

[5] = molecular target: T1, PD-1 on 293T-PD1 cell surface; test: flow cytometry, 293T-PD1 cells; antibody 33.33 nM
Method: as §1

[6] = molecular target: T1, PD-1 on 293T-PD1 cell surface; test: flow cytometry, 293T-PD1 cells; antibody 100.00 nM
Method: as §1

[7] = molecular target: T2, CD73 on cell membrane surface (MDA-MB-231, U87-MG) (human, UniProt P21589 27-549); test: flow cytometry, MDA-MB-231 cells; antibody 0.05 nM
T2 construct: whole, on cells; also called NT5E
T2 sequence (looked up): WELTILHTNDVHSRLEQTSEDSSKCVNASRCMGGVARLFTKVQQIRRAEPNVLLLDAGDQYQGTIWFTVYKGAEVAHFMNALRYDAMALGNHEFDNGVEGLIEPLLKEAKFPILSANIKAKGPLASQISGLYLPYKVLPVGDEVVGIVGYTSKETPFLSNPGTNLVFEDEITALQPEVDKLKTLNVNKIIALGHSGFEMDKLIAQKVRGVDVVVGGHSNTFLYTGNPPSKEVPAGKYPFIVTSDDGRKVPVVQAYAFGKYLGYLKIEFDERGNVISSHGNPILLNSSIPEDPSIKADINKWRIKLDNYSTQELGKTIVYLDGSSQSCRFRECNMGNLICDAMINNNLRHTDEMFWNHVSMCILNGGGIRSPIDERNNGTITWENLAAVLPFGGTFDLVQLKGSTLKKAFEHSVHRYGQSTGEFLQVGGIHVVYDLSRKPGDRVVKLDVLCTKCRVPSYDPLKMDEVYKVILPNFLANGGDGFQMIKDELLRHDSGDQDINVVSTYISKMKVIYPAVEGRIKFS
Method: (§2) MDA-MB-231 cells in logarithmic phase were digested with conventional trypsin and transferred to a 1.5 mL centrifuge tube at 3×10⁵ cells/tube. 500 μL of PBSA was added, and the mixture was centrifuged at 5600 rpm for 5 min to remove the supernatant. […] The system was mixed gently and uniformly, and then was incubated on ice for 1 h. Then 500 μL of PBSA was added, and the mixture was centrifuged at 5600 rpm for 5 min to remove the supernatant. […] 500 μL of PBSA was added, and the mixture was centrifuged at 5600 rpm for 5 min to remove the supernatant. At last, 200 μL of PBSA was added to resuspend cell precipitates, and the mixture was transferred to a flow tube for FACSCalibur detection.

[8] = molecular target: T2, CD73 on cell membrane surface …; test: flow cytometry, MDA-MB-231 cells; antibody 0.41 nM
Method: as §2

[9] = molecular target: T2, CD73 on cell membrane surface …; test: flow cytometry, MDA-MB-231 cells; antibody 1.23 nM
Method: as §2

[10] = molecular target: T2, CD73 on cell membrane surface …; test: flow cytometry, MDA-MB-231 cells; antibody 11.11 nM
Method: as §2

[11] = molecular target: T2, CD73 on cell membrane surface …; test: flow cytometry, MDA-MB-231 cells; antibody 33.33 nM
Method: as §2

[12] = molecular target: T2, CD73 on cell membrane surface …; test: flow cytometry, MDA-MB-231 cells; antibody 100.00 nM
Method: as §2

T1 sequence (Q15116 25-288): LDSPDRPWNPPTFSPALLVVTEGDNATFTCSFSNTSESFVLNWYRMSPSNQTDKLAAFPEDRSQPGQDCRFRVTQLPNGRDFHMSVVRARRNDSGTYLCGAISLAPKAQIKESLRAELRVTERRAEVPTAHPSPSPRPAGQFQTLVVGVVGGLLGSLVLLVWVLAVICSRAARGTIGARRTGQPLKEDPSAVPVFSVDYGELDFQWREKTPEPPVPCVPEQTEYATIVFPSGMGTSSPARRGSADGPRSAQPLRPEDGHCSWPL

FACS signal [1]: 26.6
FACS signal [2]: 58.6
FACS signal [3]: 151
FACS signal [4]: 578
FACS signal [5]: 479
FACS signal [6]: 531
FACS signal [7]: 23.4
FACS signal [8]: 76.8
FACS signal [9]: 272
FACS signal [10]: 561
FACS signal [11]: 526
FACS signal [12]: 706
B1: P1D7V01 (bispecific antibody, human IgG1, kappa)
heavy: not shown
light: DIQMTQSPSSMSASVGDRVTFTCRASQDINTYLSWFQQKPGKSPKTLIYRANRLVSGVPSRFSGSGSGQDYTLTISSLQPEDMATYYCLQYDEFPLTFGAGTKLELKRTVAAPSVFIFPPSDEQLKSGTASVVCLLNNFYPREAKVQWKVDNALQSGNSQESVTEQDSKDSTYSLSSTLTLSKADYEKHKVYACEVTHQGLSSPVTKSFNRGEC
notes: Morrison form IgG-scFv

FACS signal [1]: 24.1
FACS signal [2]: 49.2
FACS signal [3]: 118
FACS signal [4]: 459
FACS signal [5]: 808
FACS signal [6]: 343
FACS signal [7]: 17
FACS signal [8]: 106
FACS signal [9]: 233
FACS signal [10]: 525
FACS signal [11]: 576
FACS signal [12]: 678
B2: P1D7V03 (bispecific antibody, human IgG1, kappa)
heavy: not shown
light: B1 light
notes: Morrison form IgG-scFv
